Experimental findings from the supplement of paper PMC7125110 are described below.

A word on the kcat: it is the number of substrate molecules converted per active site and unit of time at saturation. A word on the KM: it is the concentration of substrate that gives half-maximal velocity.

First the molecules themselves.
B1: glmS ribozyme (parent)
chain: AUAAAAGCGCCAGAACUACAGAAAUGUAGUUGACGAGGAGGAGGUUUAUCGAAUUUUCGGCGGAUGCCUCCAAA

± gives the standard error. For part of these data: Variants at the floor of the assay were thinned out.

Holding throughout (details): with glucosamine-6-phosphate
The variants in data set [1] derive from B1. The experiment in a line: kcat; higher = faster cleavage; RNA array. In outline: (§1)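 Ribozyme variants carrying barcodes were transcribed in situ on sequenced MiSeq chips by E. coli RNA polymerase and tracked at 37 °C with a hybridised Cy3 probe. They were exposed to 40 μM to 10 mM glucosamine-6-phosphate in HEPES/KCl/Mg(OAc)2 buffer. kobs came from exponential decay fits of normalised per-tile medians, and kcat and KM from weighted Michaelis–Menten fits.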

In data set [2] the parent is B1. The experiment in a line: KM; higher = weaker cofactor use; RNA array. The method, boiled down:
as §1

In data set [3] the parent is B1. The experiment in a line: self-cleavage kobs at 640 uM GlcN6P; higher = faster cleavage; RNA array. In outline: as §1
Data set [4] covers variants of B1. The experiment in a line: self-cleavage kobs at 2500 uM GlcN6P; higher = faster cleavage; RNA array. The method, boiled down:
as §1

Data set [5] covers variants of B1. The experiment in a line: self-cleavage kobs at 10000 uM GlcN6P; higher = faster cleavage; RNA array. In outline: as §1
The variants in data set [6] derive from B1. The experiment in a line: self-cleavage kobs at 40 uM GlcN6P; higher = faster cleavage; RNA array. In outline: as §1
In data set [7] the parent is B1. The experiment in a line: self-cleavage kobs at 160 uM GlcN6P; higher = faster cleavage; RNA array. In outline:
as §1

As for C50U A53G, the kcat in the data set with glucosamine-6-phosphate [1] was determined as 6.82e-05 ± 1.3e-06 s⁻¹. Further, in the data set with glucosamine-6-phosphate [2], the KM was 642 ± 54 µM. The “self-cleavage kobs at 640 uM GlcN6P” value with glucosamine-6-phosphate [3] worked out at 3.45e-05 ± 1.6e-05 s⁻¹. Moreover, the “self-cleavage kobs at 2500 uM GlcN6P” value with glucosamine-6-phosphate [4] stood at 5.41e-05 ± 1.5e-05 s⁻¹. Moreover, the “self-cleavage kobs at 10000 uM GlcN6P” value in the data set with glucosamine-6-phosphate [5] came to 6.42e-05 ± 1.5e-05 s⁻¹.

As for A15U C58A, the kcat in the data set with glucosamine-6-phosphate [1] was determined as 0.000154 ± 5.6e-06 s⁻¹. For the same variant, the KM with glucosamine-6-phosphate [2] came out at 3640 ± 360 µM. Moreover, in the data set with glucosamine-6-phosphate [4], the “self-cleavage kobs at 2500 uM GlcN6P” value was 6.38e-05 ± 1.2e-05 s⁻¹. Moreover, the “self-cleavage kobs at 10000 uM GlcN6P” value in the data set with glucosamine-6-phosphate [5] was 0.000113 ± 1e-05 s⁻¹.

G32U G51A: the kcat with glucosamine-6-phosphate [1] was less than 1e-05 s⁻¹. Also, the “self-cleavage kobs at 40 uM GlcN6P” value with glucosamine-6-phosphate [6] is less than 1e-05 s⁻¹.

As for A52U G66U, in the data set with glucosamine-6-phosphate [1], the kcat was found to be 4.61e-05 ± 3.4e-06 s⁻¹. In addition, the “self-cleavage kobs at 40 uM GlcN6P” value with glucosamine-6-phosphate [6] was less than 1e-05 s⁻¹. In addition, the “self-cleavage kobs at 2500 uM GlcN6P” value with glucosamine-6-phosphate [4] came out at 3.74e-05 ± 1.8e-05 s⁻¹. Further, the “self-cleavage kobs at 10000 uM GlcN6P” value in the data set with glucosamine-6-phosphate [5] is 4.26e-05 ± 1.2e-05 s⁻¹.

On to G59A C71G, for which the kcat with glucosamine-6-phosphate [1] was less than 1e-05 s⁻¹. For the same variant, the “self-cleavage kobs at 40 uM GlcN6P” value with glucosamine-6-phosphate [6] is less than 1e-05 s⁻¹.

Regarding A39G U54C, the kcat with glucosamine-6-phosphate [1] came to 0.0135 ± 0.004 s⁻¹. Further, the Michaelis-Menten constant (KM) with glucosamine-6-phosphate [2] amounted to 759 ± 340 µM. Also, the “self-cleavage kobs at 40 uM GlcN6P” value with glucosamine-6-phosphate [6] was found to be 0.000807 ± 0.00031 s⁻¹. Moreover, the “self-cleavage kobs at 160 uM GlcN6P” value with glucosamine-6-phosphate [7] was determined as 0.00183 ± 0.0008 s⁻¹. The “self-cleavage kobs at 640 uM GlcN6P” value with glucosamine-6-phosphate [3] came out at 0.00774 ± 0.0024 s⁻¹. Besides, the “self-cleavage kobs at 2500 uM GlcN6P” value in the data set with glucosamine-6-phosphate [4] was determined as 0.00946 ± 0.0035 s⁻¹.

A39C A42U: in the data set with glucosamine-6-phosphate [1], the kcat is 0.000187 ± 4e-05 s⁻¹. Moreover, the “self-cleavage kobs at 2500 uM GlcN6P” value in the data set with glucosamine-6-phosphate [4] was 0.000135 ± 2.9e-05 s⁻¹. Also, the “self-cleavage kobs at 10000 uM GlcN6P” value with glucosamine-6-phosphate [5] was 0.000143 ± 2.2e-05 s⁻¹.

On to A52U U56A, for which, in the data set with glucosamine-6-phosphate [1], the kcat is 7.93e-05 ± 2e-05 s⁻¹. Moreover, the “self-cleavage kobs at 40 uM GlcN6P” value with glucosamine-6-phosphate [6] is less than 1e-05 s⁻¹. In the data set with glucosamine-6-phosphate [4], the “self-cleavage kobs at 2500 uM GlcN6P” value came to 7.17e-05 ± 1.7e-05 s⁻¹. In addition, in the data set with glucosamine-6-phosphate [5], the “self-cleavage kobs at 10000 uM GlcN6P” value was 6.73e-05 ± 9.7e-06 s⁻¹.

Turning to U47G C58G, the kcat with glucosamine-6-phosphate [1] came out at 0.000117 ± 5.4e-05 s⁻¹. Also, the “self-cleavage kobs at 640 uM GlcN6P” value with glucosamine-6-phosphate [3] was found to be 5.51e-05 ± 2.1e-05 s⁻¹. Moreover, in the data set with glucosamine-6-phosphate [4], the “self-cleavage kobs at 2500 uM GlcN6P” value amounted to 3.21e-05 ± 1.3e-05 s⁻¹. The “self-cleavage kobs at 10000 uM GlcN6P” value in the data set with glucosamine-6-phosphate [5] amounted to 8.31e-05 ± 1.2e-05 s⁻¹.

For A12C G41C, the kcat with glucosamine-6-phosphate [1] was 4.9e-05 ± 9.3e-06 s⁻¹. Moreover, the “self-cleavage kobs at 2500 uM GlcN6P” value with glucosamine-6-phosphate [4] amounted to 7.35e-05 ± 3.2e-05 s⁻¹. In the data set with glucosamine-6-phosphate [5], the “self-cleavage kobs at 10000 uM GlcN6P” value turned out to be 4.45e-05 ± 1.1e-05 s⁻¹.

Turning to U30C G40U, in the data set with glucosamine-6-phosphate [1], the kcat stood at 4.56e-05 ± 6.3e-06 s⁻¹. For the same variant, the “self-cleavage kobs at 2500 uM GlcN6P” value with glucosamine-6-phosphate [4] is 5.33e-05 ± 1.1e-05 s⁻¹. Moreover, the “self-cleavage kobs at 10000 uM GlcN6P” value in the data set with glucosamine-6-phosphate [5] came to 4.17e-05 ± 6.9e-06 s⁻¹.

Turning to U47C U57A, in the data set with glucosamine-6-phosphate [1], the kcat is 0.000495 ± 0.00012 s⁻¹. Besides, in the data set with glucosamine-6-phosphate [4], the “self-cleavage kobs at 2500 uM GlcN6P” value stood at 2.94e-05 ± 1.3e-05 s⁻¹. The “self-cleavage kobs at 10000 uM GlcN6P” value in the data set with glucosamine-6-phosphate [5] stood at 0.0001 ± 2.7e-05 s⁻¹.

Take A12G G59C: in the data set with glucosamine-6-phosphate [1], the kcat amounted to 6.79e-05 ± 1.4e-05 s⁻¹. Besides, the “self-cleavage kobs at 40 uM GlcN6P” value in the data set with glucosamine-6-phosphate [6] was less than 1e-05 s⁻¹. Also, the “self-cleavage kobs at 2500 uM GlcN6P” value with glucosamine-6-phosphate [4] stood at 7.69e-05 ± 2.4e-05 s⁻¹. For the same variant, in the data set with glucosamine-6-phosphate [5], the “self-cleavage kobs at 10000 uM GlcN6P” value is 5.86e-05 ± 1.4e-05 s⁻¹.

Consider G37A G40U, for which the kcat in the data set with glucosamine-6-phosphate [1] amounted to 0.000159 ± 2e-05 s⁻¹. Moreover, in the data set with glucosamine-6-phosphate [2], the KM is 2050 ± 490 µM. Further, the “self-cleavage kobs at 640 uM GlcN6P” value with glucosamine-6-phosphate [3] is 3.99e-05 ± 7.5e-06 s⁻¹. Besides, in the data set with glucosamine-6-phosphate [4], the “self-cleavage kobs at 2500 uM GlcN6P” value was found to be 8.45e-05 ± 9.3e-06 s⁻¹. Also, in the data set with glucosamine-6-phosphate [5], the “self-cleavage kobs at 10000 uM GlcN6P” value came to 0.000151 ± 4.4e-05 s⁻¹.

With A33U G60C, in the data set with glucosamine-6-phosphate [1], the kcat was less than 1e-05 s⁻¹. For the same variant, in the data set with glucosamine-6-phosphate [6], the “self-cleavage kobs at 40 uM GlcN6P” value is less than 1e-05 s⁻¹. For the same variant, the “self-cleavage kobs at 640 uM GlcN6P” value in the data set with glucosamine-6-phosphate [3] is less than 1e-05 s⁻¹. Moreover, in the data set with glucosamine-6-phosphate [5], the “self-cleavage kobs at 10000 uM GlcN6P” value was less than 1e-05 s⁻¹.

As for G13C G43U C67A, the kcat in the data set with glucosamine-6-phosphate [1] stood at 6.76e-05 ± 3.4e-05 s⁻¹.

Regarding U30A G32A, the kcat in the data set with glucosamine-6-phosphate [1] worked out at 0.00147 ± 0.00062 s⁻¹. For the same variant, the “self-cleavage kobs at 160 uM GlcN6P” value with glucosamine-6-phosphate [7] is 0.000109 ± 2.5e-05 s⁻¹. Besides, the “self-cleavage kobs at 640 uM GlcN6P” value with glucosamine-6-phosphate [3] was determined as 0.000192 ± 3.2e-05 s⁻¹. Besides, in the data set with glucosamine-6-phosphate [4], the “self-cleavage kobs at 2500 uM GlcN6P” value was 0.000485 ± 9.6e-05 s⁻¹. The “self-cleavage kobs at 10000 uM GlcN6P” value with glucosamine-6-phosphate [5] came to 0.0012 ± 0.00022 s⁻¹.

Turning to G35C C70A, the kcat with glucosamine-6-phosphate [1] is less than 1e-05 s⁻¹. In addition, the “self-cleavage kobs at 40 uM GlcN6P” value in the data set with glucosamine-6-phosphate [6] is less than 1e-05 s⁻¹. Further, in the data set with glucosamine-6-phosphate [3], the “self-cleavage kobs at 640 uM GlcN6P” value was less than 1e-05 s⁻¹.

A39G G41C: the kcat with glucosamine-6-phosphate [1] turned out to be 4.55e-05 ± 7.4e-06 s⁻¹. In addition, the “self-cleavage kobs at 40 uM GlcN6P” value in the data set with glucosamine-6-phosphate [6] was less than 1e-05 s⁻¹. For the same variant, the “self-cleavage kobs at 2500 uM GlcN6P” value with glucosamine-6-phosphate [4] is 5.57e-05 ± 1.5e-05 s⁻¹. Moreover, the “self-cleavage kobs at 10000 uM GlcN6P” value with glucosamine-6-phosphate [5] came out at 3.84e-05 ± 1.2e-05 s⁻¹.

Take G40A U57C: in the data set with glucosamine-6-phosphate [1], the kcat was 3.56e-05 ± 5.2e-06 s⁻¹. Moreover, the “self-cleavage kobs at 2500 uM GlcN6P” value with glucosamine-6-phosphate [4] amounted to 4.59e-05 ± 2e-05 s⁻¹. For the same variant, in the data set with glucosamine-6-phosphate [5], the “self-cleavage kobs at 10000 uM GlcN6P” value amounted to 3.15e-05 ± 1.2e-05 s⁻¹.
